{"source": "patent US20200283773", "about": "“NUCLEOLIN-TARGETING APTAMERS AND METHODS OF USING THE SAME” (Duke University, published 2020)", "conditions_in_all_cases": "label: 32P end label", "key": {"[1]": {"molecular_target": "T1, nucleolin (NCL), recombinant (Homo sapiens, UniProt P19338 SEQ:1-710)", "T1 sequence (P19338 whole entry)": "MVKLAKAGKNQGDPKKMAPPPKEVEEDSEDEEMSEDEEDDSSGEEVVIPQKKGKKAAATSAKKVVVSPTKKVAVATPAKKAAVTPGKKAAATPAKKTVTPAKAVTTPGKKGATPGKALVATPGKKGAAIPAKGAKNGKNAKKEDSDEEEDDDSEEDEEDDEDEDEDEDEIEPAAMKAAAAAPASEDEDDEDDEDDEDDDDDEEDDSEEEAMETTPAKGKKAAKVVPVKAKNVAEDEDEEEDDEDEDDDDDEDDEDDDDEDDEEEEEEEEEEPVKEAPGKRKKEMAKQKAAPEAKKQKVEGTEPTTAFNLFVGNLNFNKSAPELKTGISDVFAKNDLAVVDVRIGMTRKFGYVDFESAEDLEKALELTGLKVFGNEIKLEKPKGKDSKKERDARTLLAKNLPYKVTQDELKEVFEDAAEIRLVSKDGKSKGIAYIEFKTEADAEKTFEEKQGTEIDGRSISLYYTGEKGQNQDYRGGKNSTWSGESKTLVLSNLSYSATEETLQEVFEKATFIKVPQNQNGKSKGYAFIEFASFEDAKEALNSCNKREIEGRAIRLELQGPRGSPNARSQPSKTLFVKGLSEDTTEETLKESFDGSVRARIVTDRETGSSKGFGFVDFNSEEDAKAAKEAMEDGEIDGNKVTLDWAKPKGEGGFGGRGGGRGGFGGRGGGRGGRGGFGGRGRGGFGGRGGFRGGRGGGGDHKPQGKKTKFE", "experiment": "filter; 20 mM Hepes, 150 mM NaCl, 2 mM CaCl2, 0.01% BSA, 37 C; Bmax 23.08%", "procedure": "(§1) Aptamers were end-labeled with ³²P. Nucleolin protein was serially diluted in 20 mM Hepes, 150 mM NaCl, 2 mM CaCl₂ and 0.01% bovine serum albumin and incubated with a trace amount of the ³²P-labeled RNA pools. After incubation at 37° C., unbound RNA was captured on a nylon membrane and RNA-nucleolin complexes captured on a nitrocellulose membrane. The fraction of protein-bound RNA was determined via phosphorimaging of the nitrocellulose and nylon membranes."}, "[2]": {"molecular_target": "T1, nucleolin (NCL), recombinant", "experiment": "filter; 20 mM Hepes, 150 mM NaCl, 2 mM CaCl2, 0.01% BSA, 37 C; Bmax 32.76%", "procedure": "as §1"}, "[3]": {"molecular_target": "T1, nucleolin (NCL), recombinant", "experiment": "filter; among truncates with best affinity; values only in figure"}, "[4]": {"molecular_target": "T1, nucleolin (NCL), recombinant", "experiment": "filter; 20 mM Hepes, 150 mM NaCl, 2 mM CaCl2, 0.01% BSA, 37 C; Bmax 53.6%", "procedure": "as §1"}, "[5]": {"molecular_target": "T1, nucleolin (NCL), recombinant", "experiment": "filter; similar affinity to parent Ev3"}, "[6]": {"molecular_target": "T1, nucleolin (NCL), recombinant", "experiment": "filter; 20 mM Hepes, 150 mM NaCl, 2 mM CaCl2, 0.01% BSA, 37 C; Bmax 25.2%", "procedure": "as §1"}, "[7]": {"molecular_target": "T1, nucleolin (NCL), recombinant", "experiment": "filter; 20 mM Hepes, 150 mM NaCl, 2 mM CaCl2, 0.01% BSA, 37 C; Bmax 33.6%, R2 0.6520", "procedure": "as §1"}, "[8]": {"molecular_target": "T1, nucleolin (NCL), recombinant", "experiment": "filter; Ev2 described as non-binding aptamer control"}}, "data": [{"binder": "FAM-E (ssRNA, 2'-F pyrimidines) RNA: GGGAGAGAGGAAGAGGGAUGGGCACGGUCCAGCGCUAACUGUACCUGCUGUGCCACCCACCGCAUAACCCAGAGGUCGAUAGUACUGGAUCCCCCC", "values": [{"measurement": "Kd", "setting": "[1]", "value": 1.69, "unit": "nM"}]}, {"binder": "FAM-C (ssRNA, 2'-F pyrimidines) RNA: GGGAGAGAGGAAGAGGGAUGGGAAGAUCUGCUAAGUGCACGCACAAUCACCAUCGAGCGUCUCAUAACCCAGAGGUCGAUAGUACUGGAUCCCCCC", "values": [{"measurement": "Kd", "setting": "[2]", "value": 0.428, "unit": "nM"}]}, {"binder": "Dv2 (ssRNA, 2'-F pyrimidines) RNA: GGGAGAGAGGAAGAGGGAUGGGCACAUGGUACGCCCAAAGCGAGGCCCGCUGCGUAGUGCC", "values": [{"measurement": "binding result", "setting": "[3]", "value": "binds"}]}, {"binder": "FAM-D (ssRNA, 2'-F pyrimidines) RNA: GGGAGAGAGGAAGAGGGAUGGGCACAUGGUACGCCCAAAGCGAGGCCCGCUGCGUAGUGCCAUAACCCAGAGGUCGAUAGUACUGGAUCCCCCC", "values": [{"measurement": "Kd", "setting": "[4]", "value": 0.586, "unit": "nM"}]}, {"binder": "Fv3 (ssRNA, 2'-F pyrimidines) RNA: GGGAGAGAGGAAGAGGGAUGGGACCACGCGCCAACGUGUCAGCUACACGCCGUGUUCCCCGG", "values": [{"measurement": "binding result", "setting": "[3]", "value": "binds"}]}, {"binder": "Ev3 (ssRNA, 2'-F pyrimidines) RNA: GGGAGAGAGGAAGAGGGAUGGGCACGGUCCAGCGCUAACUGUACCUGCUGUGCCACCCACCG", "values": [{"measurement": "binding result", "setting": "[3]; DL650 for flow", "value": "binds"}]}, {"binder": "Ev3.min22 (ssRNA, 2'-F pyrimidines) RNA: GGGAGGAAGAGGGAUGGGCACGGUCCAGCGCUAACUGUACCUGCUGUGCCACCC", "values": [{"measurement": "binding result", "setting": "[5]", "value": "binds"}]}, {"binder": "FAM-B (ssRNA, 2'-F pyrimidines) RNA: GGGAGAGAGGAAGAGGGAUGGGAGCCAGCUUUGCAUACCACGUGCAAUUCACUCCACCCGUCACAUAACCCAGAGGUCGAUAGUACUGGAUCCCCCC", "values": [{"measurement": "Kd", "setting": "[6]", "value": 0.851, "unit": "nM"}]}, {"binder": "Ev5 (ssRNA, 2'-F pyrimidines) RNA: GGAAGAGGGAUGGGCACGGUCCAGCGCUAACUGUACCUGCUGUGCCACCCACC", "values": [{"measurement": "binding result", "setting": "[3]; DL650 for flow", "value": "binds"}]}, {"binder": "FAM-F (ssRNA, 2'-F pyrimidines) RNA: GGGAGAGAGGAAGAGGGAUGGGACCACGCGCCAACGUGUCAGCUACACGCCGUGUUCCCCGGCAUAACCCAGAGGUCGAUAGUACUGGAUCCCCCC", "values": [{"measurement": "Kd", "setting": "[7]", "value": 0.37, "unit": "nM"}]}, {"binder": "GGGAUGGGCACGGUCCAGCGCUAACUGUACCUGCUGUGCCACCCACCGC (ssRNA, 2'-F pyrimidines)", "note": "[Ev2]", "values": [{"measurement": "binding result", "setting": "[8]", "value": "no binding"}]}, {"binder": "GGGAUGGGCACGGUCCAGCGCUAACUGUACCUGCUGUGCCACCC (ssRNA, 2'-F pyrimidines)", "note": "[Ev3.min21]", "values": [{"measurement": "binding result", "setting": "[5]", "value": "binds"}]}, {"binder": "Ev3.min24 (ssRNA, 2'-F pyrimidines) RNA: GGGAGGAAGAGGGAUGGGCACGGUCCAGCGCACUGUACCUGCUGUGCCACCC", "values": [{"measurement": "binding result", "setting": "[5]", "value": "binds"}]}, {"binder": "Bv1 (ssRNA, 2'-F pyrimidines) RNA: GGAAGAGGGAUGGGUGCCAGCUUUGCAUACCACGUGCAAUUCACUCCACCCGUCAC", "values": [{"measurement": "binding result", "setting": "[3]", "value": "binds"}]}]}
